From article doi:10.1101/2024.01.24.577129

Molecular target: RGY-hIgG1-34-1-2S (mouse | human | not stated)
Test: negative stain electron microscopy; antibody in solution diluted to 0.01 mg/ml in 25 mM HEPES, 100 mM NaCl, on carbon-coated grids, 0.75% uranyl formate

B1: RGY-hIgG1-34-1-2S (antibody, V domains shown)
VH: EVQLQQSGAEFVRPGASVKLSCTASGFNLKDDYMFWVKQRPEQGLEWIGWIAPDNGDTEYASKFQGKATITADTSSNTAYVQLSSLTSEDTAVYYCTTWGYYSYVNYWGQGTTLTVSS
VL: DIQMTQSPSSLSASLGERVSLTCRASQDIGSNLNWLQQEPDGTIKRLIYATYSLDSGVPKRFSGSRSGSDYSLTISSLESEDFVDYYCLQYASSPYTFGGGTKLEIK
Question: Which stoichiometry N does the source give for B1 here?
Answer: 6
